# Test results: patent US20050191293A1 (Bristol-Myers Squibb, published 2005)
# Where “and” joins values, the source holds several entries; their conditions need not be identical. Identical values can stand only once.
# T1: rhesus monkey IP-10 (rhesus monkey, UniProt Q8MIZ1 22-98)
# T1 construct: Made by recombinant expression and purified by standard methods; also called Rhesus IP-10; rrmIP-10
# T1 sequence: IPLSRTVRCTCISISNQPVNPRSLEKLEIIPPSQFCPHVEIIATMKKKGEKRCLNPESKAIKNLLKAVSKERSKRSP
# T2: human MIG (monokine induced by gamma interferon) (human, UniProt Q07325 23-125)
# T2 construct: Bought (PeproTech 300-26; R&D Systems for the migration assay)
# T2 sequence: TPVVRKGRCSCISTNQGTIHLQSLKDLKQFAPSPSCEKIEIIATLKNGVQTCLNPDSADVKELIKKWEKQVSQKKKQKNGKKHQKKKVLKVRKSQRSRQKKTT
# T3: human ITAC (interferon-inducible T cell alpha chemoattractant) (human, UniProt O14625 22-94)
# T3 sequence: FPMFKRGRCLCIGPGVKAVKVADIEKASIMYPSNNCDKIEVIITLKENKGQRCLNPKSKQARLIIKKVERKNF
# T4: mouse IP-10 (mouse, UniProt P17515 22-98)
# T4 construct: Bought (PeproTech 250-16)
# T4 sequence: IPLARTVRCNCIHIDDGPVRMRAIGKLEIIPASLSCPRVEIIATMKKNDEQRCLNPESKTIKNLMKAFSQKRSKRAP
# Tests used:
# [1] = target: T5, human IP-10 (interferon gamma inducible protein 10) (human, UniProt P02778 22-98); assay: SPR (Biacore), extension of dissociation curve, 25 C
# T5 construct: Native IP-10 from THP-1 supernatant and from MS patient CSF in the migration assays is also put under this molecule; also called CXCL10; rhIP-10
# T5 sequence (P02778 other isoform, or with tags, fused parts or gaps limits assumed): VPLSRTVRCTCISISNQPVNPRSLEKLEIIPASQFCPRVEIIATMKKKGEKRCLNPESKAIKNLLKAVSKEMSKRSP
# Method: (§1) Binding was measured by flowing the antibody in HBS EP buffer (provided by Biacore AB) at concentrations from 33-267 nM at a flow rate of 40 μl/min. The antigen-antibody association kinetics was followed for 5 minutes and the dissociation kinetics was followed for 8 minutes. The association and dissociation curves were fit to a 1:1 Langmuir binding model using BIAevaluation software (Biacore AB). Data corresponding to the initial few dozen seconds for association and dissociation phases alone were considered for curve fitting to minimize the effect of avidity. The experiments were performed at both 25° C. and 37° C.
# (§2) The values were determined by extension of the dissociation curves to get to the time required for the 50% reduction of the Y-axis of the dissociation sensogram.
# rhesus monkey IP-10 [2] = target: T1, rhesus monkey IP-10; assay: ELISA, plate coated with 1 ug/ml antigen
# Method: (§3) The plates were washed with PBS/Tween and then incubated with a goat-anti-human IgG Fc polyclonal antibody conjugated with horseradish peroxidase (HRP) for 1 hour at room temperature. After washing, the plates were developed with ABTS substrate (Sigma, A-1888, 0.22 mg/ml) and analyzed by spectrophotometer at OD 415-495.
# [3] = target: T2, human MIG (monokine induced by gamma …); assay: ELISA, plate coated with 1 ug/ml antigen
# Method: as §3
# [4] = target: T5, human IP-10 (interferon gamma inducible …); assay: ELISA, plate coated with 1 ug/ml antigen
# Method: as §3
# rhesus monkey IP-10 [5] = target: T1, rhesus monkey IP-10; assay: cell-based or functional assay
# [6] = target: T5, human IP-10 (interferon gamma inducible …); assay: cell-based or functional assay
# [7] = target: T5, human IP-10 (interferon gamma inducible …); assay: SPR (Biacore), human IP-10 on CM5 chip, 25 C
# Method: as §1
# [8] = target: T5, human IP-10 (interferon gamma inducible …); assay: cell-based or functional assay; remark: listed apart in the source
# rhesus monkey IP-10 [9] = target: T1, rhesus monkey IP-10; assay: SPR (Biacore), antigen on CM5 chip, antibody 133 nM, 25 C
# Method: (§4) The flow was then stopped and dissociation was monitored for 5 minutes. The association and dissociation curves were fit to a Langmuir binding model using BIAevaluation software (Biacore AB).
# [10] = target: T2, human MIG (monokine induced by gamma …); assay: as above
# Method: as §4
# [11] = target: T3, human ITAC (interferon-inducible T cell …); assay: as above
# Method: as §4
# [12] = target: T5, human IP-10 (interferon gamma inducible …); assay: inhibition of 0.100 nM 125I-IP-10 binding to CXCR3-expressing 300.19 cells
# Method: The cells were grown in RPMI media containing 10% FCS and G418 selection. Prior to use, the cells were washed twice with Hank's Balanced Salt Solution (HBSS) at 4° C. and adjusted to 4×10⁷ cells/ml. Glass fiber plates (Millipore MultiScreen®, Cat. #MAFBNOB50) were blocked with 200 μl of a 0.1% polyethyleneimine solution one day prior to the experiment. On the day of the study, the blocking buffer was aspirated by using a Millipore manifold. The plates were washed three times with 200 μl of binding buffer (50 mM HEPES, pH 7.2, 1 mM CaCl₂, 5 mM MgCl₂, 0.5% BSA). […] The plates were incubated on a plate shaker for 60 minutes at room temperature and washed three times with wash buffer (10 mM HEPES, pH 7.2, 0.5 M NaCl, 0.5% BSA) at a volume of 200 μl per wash. The plates were dried, 25 μl of scintillant was added and the plates were counted on a Wallac Microbeta Counter. Data were analyzed using Prism software and a KD was calculated.
# Competition assays were run in a similar manner to the experiment described above. […] Lastly, 25 μl of cells at a density of 1×10⁶ cells per well were added and the plates were incubated on a plate shaker for 60 minutes at room temperature, washed and counted as described above. EC₅₀ values were calculated using Prism software. Kᵢ values (in nM) were determined using the formula: […]
# [13] = target: T5, human IP-10 (interferon gamma inducible …); assay: SPR (Biacore), human IP-10 on CM5 chip, 37 C
# Method: as §1
# [14] = target: T5, human IP-10 (interferon gamma inducible …); assay: SPR (Biacore), extension of dissociation curve, 37 C
# Method: as §1, §2
# mouse IP-10 [15] = target: T4, mouse IP-10; assay: SPR (Biacore), antigen on CM5 chip, 25 C
# Method: as §4
# [16] = target: T3, human ITAC (interferon-inducible T cell …); assay: SPR (Biacore), antigen on CM5 chip, 25 C
# Method: as §4
# [17] = target: T5, human IP-10 (interferon gamma inducible …); assay: cell-based or functional assay; remark: listed apart in the source
# mouse IP-10 [18] = target: T4, mouse IP-10; assay: SPR (Biacore), antigen on CM5 chip, 25 C; sample 6A5
# Method: as §4
# [19] = target: T3, human ITAC (interferon-inducible T cell …); assay: as above
# Method: as §4
# [20] = target: T2, human MIG (monokine induced by gamma …); assay: SPR (Biacore), antigen on CM5 chip, 25 C; sample 6A5 Batch 2
# Method: as §4
Binder,Half-life (dissociation of half of the antibody-antigen complex) [1],EC50 (rhesus monkey IP-10 [2]),EC50 [3],EC50 [4],Kd [7],koff [7],kon [7],IC50 (nM) for 300.19 Cells: inhibition of IP-10-induced calcium flux in 300.19 cells transfected to express CXCR3 [8],IC50 (nM) for HPBL: inhibition of IP-10-induced calcium flux in anti-CD3 activated human PBLs that express CXCR3 [8],Kd (rhesus monkey IP-10 [9]),Kd [10],Ki [12],Kd [13],koff [13],kon [13],Half-life (dissociation of half of the antibody-antigen complex) [14],further results
"6B10 human monoclonal antibody (antibody, V domains shown, Human IgG with kappa light chain from a hybridoma of transgenic mice) VH: QVQLVESGGGVVQPGRSLRLSCAASGFTFSNSAMHWVRQAPGKGLEWVALIPFDGYNKYYADSVKGRFTISRDNSKNTLYLQMNSLRAEDTAVYYCAREGGYTGYDGGFDYWGQGILVTVSS VL: EIVLTQSPATLSLSPGERATLSCRASQSVSSYLAWYQQKPGQAPRLLIYDASNRATGIPARFSGSGSGTDFTLTISSLEPEDFAVYYCQQRSNWPPYTFGQGTKLEIK",1.12 h,0.045 µg/mL,0.02 µg/mL,0.03 µg/mL,1.78 nM,0.000172 s⁻¹,95000 M⁻¹ s⁻¹,0.5 nM,4.4 nM,2.01 nM,15.4 nM,0.3 nM,2.54 nM,0.000504 s⁻¹,199000 M⁻¹ s⁻¹,0.38 h,"rrmIP-10 IC50: inhibition of migration of CXCR3-expressing 300.19 cells induced by 100 ng/ml recombinant rhesus macaque IP-10 (rhesus monkey IP-10 [5]): 0.149 µg/mL; THP-1 IP-10 IC50: inhibition of migration of CXCR3-expressing 300.19 cells induced by native IP-10 in THP-1 supernatant, MIG blocked by anti-MIG [6]: 0.193 µg/mL; rhIP-10 IC50: inhibition of migration of CXCR3-expressing 300.19 cells induced by 100 ng/ml recombinant human IP-10 [6]: 1.1 µg/mL; Kd [11]: 51.5 nM"
"2G1 human monoclonal antibody (antibody, V domains shown, Human IgG with kappa light chain from a hybridoma of transgenic mice) VH: QVQLVESGGGVVQPGRSLRLSCAASGFTFSNCGMHWVRQAPGKGLEWVALIGYDGINEYYADSVKGRFTISRDNSKNTLYLQMNSLRAEDTAVFYCARDWPEGYYNGMDVWGQGTTVTVSS VL: not shown",25.7 h,0.03 µg/mL,0.045 µg/mL,0.03 µg/mL,~0.198 nM,7.5e-06 s⁻¹,37800 M⁻¹ s⁻¹,0.5 nM,2.98 nM,0.26 nM,70.1 nM,0.09 nM,0.34 nM,4.97e-05 s⁻¹,148000 M⁻¹ s⁻¹,3.87 h,binding result (mouse IP-10 [15]): no binding (tested: 133 nM); binding result [16]: no binding (tested: 133 nM)
"6A5 human monoclonal antibody (antibody, V domains shown, Human IgG with kappa light chain from a hybridoma; also called 6A5 Batch 2; 6A5 (Batch 2)) VH: QMQLVESGGGVVQPGRSLRLSCTASGFTFSNNGMHWVRQAPGKGLEWVAVIWFDGMNKFYVDSVKGRFTISRDNSKNTLYLEMNSLRAEDTAIYYCAREGDGSGIYYYYGMDVWGQGTTVTVSS VL: not shown",5.29 h and 6.21 h,0.125 µg/mL and 0.09 µg/mL,–,0.035 µg/mL and 0.062 µg/mL,1.2 nM and 0.96 nM,3.64e-05 s⁻¹ and 3.1e-05 s⁻¹,31100 M⁻¹ s⁻¹ and 32000 M⁻¹ s⁻¹,–,–,1.06 nM and 1.23 nM,–,0.67 nM and 0.35 nM,0.7 nM and 0.74 nM,7.15e-05 s⁻¹ and 6.26e-05 s⁻¹,102000 M⁻¹ s⁻¹ and 84100 M⁻¹ s⁻¹,2.69 h and 3.87 h,"Expt. 1 IC50: inhibition of MS-CSF induced migration of CXCR3-expressing 300.19 cells, MIG neutralized by anti-MIG (sample 6A5 (Batch 2)) [17]: 0.1 µg/mL; Expt. 2 IC50: inhibition of MS-CSF induced migration of CXCR3-expressing 300.19 cells, MIG neutralized by anti-MIG (sample 6A5 (Batch 2)) [17]: 0.236 µg/mL; binding result (mouse IP-10 [18]): no binding (tested: 133 nM); binding result [19]: no binding (tested: 133 nM); rrmIP-10 IC50: inhibition of migration of CXCR3-expressing 300.19 cells induced by 100 ng/ml recombinant rhesus macaque IP-10 (sample 6A5 (Batch 2)) (rhesus monkey IP-10 [5]): 0.119 µg/mL; THP-1 IP-10 IC50: inhibition of migration of CXCR3-expressing 300.19 cells induced by native IP-10 in THP-1 supernatant, MIG blocked by anti-MIG (sample 6A5 (Batch 2)) [6]: 0.132 µg/mL; rhIP-10 IC50: inhibition of migration of CXCR3-expressing 300.19 cells induced by 100 ng/ml recombinant human IP-10 (sample 6A5 (Batch 2)) [6]: 0.156 µg/mL; IC50 (nM) for 300.19 Cells: inhibition of IP-10-induced calcium flux in 300.19 cells transfected to express CXCR3 (sample 6A5) [8]: 0.61 nM; IC50 (nM) for 300.19 Cells: inhibition of IP-10-induced calcium flux in 300.19 cells transfected to express CXCR3 (sample 6A5 Batch 2) [8]: 0.42 nM; IC50 (nM) for HPBL: inhibition of IP-10-induced calcium flux in anti-CD3 activated human PBLs that express CXCR3 (sample 6A5) [8]: 2.85 nM; IC50 (nM) for HPBL: inhibition of IP-10-induced calcium flux in anti-CD3 activated human PBLs that express CXCR3 (sample 6A5 Batch 2) [8]: 2.18 nM; binding result [20]: no binding (tested: 133 nM)"
